These results are taken from the nanobody polyreactivity screen of Harvey et al. (2022).

The data set can be described thus: yeast display, Sf9 membrane polyspecificity reagent, FACS + sequencing; frameworks hold sequencing errors. A digest of the protocol: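 Using colony PCR, genes from sorted yeast display clones were amplified, then sequenced on MiSeq at 2 × 250 and filtered by CDR length. The clones had been stained with 10% biotinylated, detergent-solubilized Sf9 membrane reagent for 1 hour at 4 °C and sorted by FACS into low and high (top ~1%) gates on anti-HA and streptavidin fluorescence. Polyreactivity labels come from the gate of origin.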
As for “QVQLVESGGLLVKAGGSLRLSCAASGSIFYLYVMGWYRQAPGIERELVAANTWSGGSTYYADSVKGRFTISRDNAKNTVYLQMNILIPEDTAVYYCAARGYVPYVKYDYWGQGTQVTVSS”, the “polyreactivity (PSR sort gate)” value was “high polyreactivity”.
For the sequence “QVQLVESGGLLVQGGVSLRLSCAASGSTLYIYAMGWYRQAPGKERELVAANTWSGGRTFYADSVKGRFTISRDNAKNTVSLQMNSLTPEDTAVYYCAARILSDKTGSRYYYWGQGTQVTVSS”, the “polyreactivity (PSR sort gate)” value is listed as “high polyreactivity”.
As to “QVQLVESGGRIVQAGGSLRLSCAASGSILNNYAMGWYRQAPGKERELVAAISSSGGTNYADSVKGRFTISRDNEKNTVFLQMNSLKPEDTAVYYCNADVLDGGYDYWGQGTQVTVSS”, the “polyreactivity (PSR sort gate)” value is on record as “low polyreactivity”.
Turning to “QVQLVESGGRLLQAGGSLRLSCAASGSIFVGYAMGWYRQAPGKEWELVAAISASGGRTYYADSVKGRFTISRDNAKTTVYLQMNSLKPEDTAVYYCATDDYWGRGTQVTVSS”, the “polyreactivity (PSR sort gate)” value is reported as “high polyreactivity”.
For the sequence “QVQLVESGGRLRQAGGSLRLSCAASGSTFVSYAMGWYRQAPGKERELVAAISTSGGRSYYADSVKGRFTISRDNAKNTVYLQMNSLKREDTAVYYCAAEHYQRWWPYWYWPYYWGQGTQVTVSS”, the “polyreactivity (PSR sort gate)” value is “high polyreactivity”.
As for “QVQLVESGGRLVHAGGSLRLSCAASGFTFSDYAMGGYRQEPGKERELVAAISTRGSSTYYADSVKGLFTISRDNEKTTVYLEMNSLKPEDTAVYYCNAVGSYSGYYYWGQGNQVTVSS”, the “polyreactivity (PSR sort gate)” value is given as “high polyreactivity”.
Turning to “QVQLVESGGRLVKARGSLRISFADSVRTFIRNAMGWYRQAPGKERELVAAITSSGGSTYYADSVKGRFTISRDNAKITVYLQMNILKPEDTAVYYCAAVNSKRHRRYNYWGQGTQVTVSS”, the “polyreactivity (PSR sort gate)” value was “high polyreactivity”.
“QVQLVESGGRLVQAGGRLRLICAASGFIFSDYAMGWYRQAPGKERELVAAISWRGGSTYYADSVKGRFTISRDKEKNSVYLQMNSLKPEDTAVYYCAADYGAYDMDYWGQGTQVTVSS”: the “polyreactivity (PSR sort gate)” value is “high polyreactivity”.
For “QVQLVESGGRLVQAGGRLRLSCAASGSIFMKNAMGWYRPAHGKERELVADITRSGDRTYYADSVKGRFTISRDNAKNTVYLQMNSLKPEDTAVYYCAKYYVWPRYGYSGQGTQVTVSS”, the “polyreactivity (PSR sort gate)” value is “high polyreactivity”.
Turning to “QVQLVESGGRLVQAGGSHRLSCAASGRTFFHYAMGWYRQSPGKERELVAAITYRGTSTYYADSVKGRFTISRDNAKYTVYIQMNSLKPEDTAVYYCNAYSTRGGWSYRGDSWGQGTQVTVSS”, the “polyreactivity (PSR sort gate)” value is given as “high polyreactivity”.
The value for “QVQLVESGGRLVQAGGSLRISCDASGFIFVRNAMGWSRQAPGTEWELVAASTLCTGSTYYADSVKGRFTISRDNAKITVYLQMKSLKPEDTAVYYCNANKRIRPYRPGMDYWGHGTQVTVSS” was “high polyreactivity”; that for “QVQLVESGGRLVQAGGSLRISSAASRFILFPYAMGWYRQAPGKERELVAAIRSDDTTNYADSVKGRFTISRDNAKNTVYLQMNSLKPEDTAVYYCATACYSWVSYDYWGQGTQVTVSS” was “low polyreactivity”.
With “QVQLVESGGRLVQAGGSLRLICAASGSIFGHYAMGWYRQAPRKEREFVAAIDWSGGSSYYADSVKGRFTISRDNAKNTVYLQMISLKPEDTAVYYCAARVRERYYWGQGTQVTVSS” the entry was “high polyreactivity”.
In the case of “QVQLVESGGRLVQAGGSLRLRCAASGRTFVTNAMGWYRQAPGQERELVAAISGSGGSTYYADSVKGRFTISRDNAKNTFYLQMNSLKPEDTAVYDCATSYSLGYVRYGYWGQGSQVTVSS”, the “polyreactivity (PSR sort gate)” value is recorded as “high polyreactivity”.
For “QVQLVESGGRLVQAGGSLRLRCAASGYIFVYNAKGWYRQAPGKARELVAAITDGGGSTYADSVKGRFTISRDNAKNTVYLQMNSLKPEDTAVYYCAARYSDTTWYVLYYYWVQGTQVTVSS”, the “polyreactivity (PSR sort gate)” value is “low polyreactivity”.
On to “QVQLVESGGRLVQAGGSLRLSCAASGFIFWSYAMGWYRQARGKERELVAAISWSGGRTYYADSVKGRFTISRDNAKNTVYLQMNSLKPEDTAVYYCAAVKRYSSQYPALDYWGQGTQVTVSS”, for which the “polyreactivity (PSR sort gate)” value is given as “high polyreactivity”.
